# US20200206198A1, “CFTR CHANNEL ACTIVATOR FOR USE IN THE TREATMENT AND/OR PREVENTION OF GLUTEN SENSITIVITY CONDITIONS” (priority 2017, published 2020)
# Biological target: T1, CFTR (Homo sapiens, UniProt P13569)
# T1 construct: Immunoprecipitations of endogenous proteins were performed on 500 μg of lysates from Caco-2 cells; host or cells: Caco-2, T84
# Assay: CFTR channel function in intestinal epithelial cells (forskolin-induced Isc in Ussing chambers; SPQ iodide efflux)
# Assay type: cell-based
# Method: Human colon adenocarcinoma-derived Caco-2 and T84 cells (Barone, M. V. et al. 2014; Luciani, A. et al. 2010) were obtained from the ATCC. Cells were maintained in T25 flask in Modified Eagle Medium (MEM) for Caco-2, or Ham's F12+DMEM (1:1) for T84, supplemented with 10% fetal bovine serum (FBS), 2 mM Glutamine+1% Non Essential Amino Acids (NEAA) and the antibiotics penicillin\streptomycin (100 units/ml) (all reagents from Lonza). Caco-2 cells were grown in Transwells (Corning, 3470 or 3460) under the normal condition. Briefly, 8×10^4 or 5×10^5 cells were seeded in 6.5-mm diameter or 12-mm diameter, respectively, and grown until the RT reached 800 to 1,200 Ω·cm^2. Transwells with a pore size of 0.4 μm were used. Medium in both the apical and baso lateral chambers was changed every other day. Cells were treated with 20 μg/ml of either with the α-gliadin peptide comprising the P31-43 amino acid sequence of α-gliadin LGQQQPFPPQQPY (SEQ ID 1) (below referred to as P31-43), which is known to induce an enterocyte stress response (Meresse, B. et al.2009; Barone, M. V. et al. 2014; Luciani, A. et al. 2010), the T-cell activating α-gliadin peptide comprising the P57-68 amino acid sequence of α-gliadin (QLQPFPQPQLPY SEQ ID 2)) (below referred to as P57-68) (Maiuri, L., et al. 2003; Meresse, B. et al.2009; 30 Barone, M. V. et al. 2014), or the scrambled GAVAAVGVVAGA (SEQ ID 3) control peptide (below referred to as PGAV), or with different modified P31-43, either biotin-tagged or not, for different time points (from 1 h short challenge up to 24 h). Cells were also treated with 50 or 100 5 μg/ml of P57-68 or PGAV peptides for 3 h.
# Caco-2 or T84 cells were also treated with: CFTR potentiators VX-770 (Ivacaftor) (10 μM) or VX-532 (20 μM) (Selleck chemicals) or Genistein (10 μM) (Verkman, A. S. et al. 2005; Jih, K. Y. et al. 2013) (Sigma-Aldrich) or in presence or absence of CFTR inhibitor172 (CFTRinh172, 20 μM).
# Human colon adenocarcinoma-derived Caco-2 and T84 cells were obtained from the ATCC. Cells were maintained in T25 flask in Modified Eagle Medium (MEM) for Caco-2, or Ham's F12+DMEM (1:1) for T84, supplemented with 10% fetal bovine serum (FBS), 2 mM Glutamine+1% Non Essential Amino Acids (NEAA) and the antibiotics penicillin\streptomycin (100 units/ml) (all reagents from Lonza) (Luciani, A., et al. 2010. Cells were grown in Transwells (Corning, 3470 or 3460) under the normal condition (Luciani, A., et al. 2012). Briefly, 8×10^4 or 5×10^5 cells were seeded in 6.5-mm diameter or 12-mm diameter, respectively, and grown until the RT reached 800 to 1,200 Ω·cm2. Transwells with a pore size of 0.4 μm were used. Medium in both the apical and basolateral chambers was changed every other day. […]
# T1 sequence (P13569 whole entry): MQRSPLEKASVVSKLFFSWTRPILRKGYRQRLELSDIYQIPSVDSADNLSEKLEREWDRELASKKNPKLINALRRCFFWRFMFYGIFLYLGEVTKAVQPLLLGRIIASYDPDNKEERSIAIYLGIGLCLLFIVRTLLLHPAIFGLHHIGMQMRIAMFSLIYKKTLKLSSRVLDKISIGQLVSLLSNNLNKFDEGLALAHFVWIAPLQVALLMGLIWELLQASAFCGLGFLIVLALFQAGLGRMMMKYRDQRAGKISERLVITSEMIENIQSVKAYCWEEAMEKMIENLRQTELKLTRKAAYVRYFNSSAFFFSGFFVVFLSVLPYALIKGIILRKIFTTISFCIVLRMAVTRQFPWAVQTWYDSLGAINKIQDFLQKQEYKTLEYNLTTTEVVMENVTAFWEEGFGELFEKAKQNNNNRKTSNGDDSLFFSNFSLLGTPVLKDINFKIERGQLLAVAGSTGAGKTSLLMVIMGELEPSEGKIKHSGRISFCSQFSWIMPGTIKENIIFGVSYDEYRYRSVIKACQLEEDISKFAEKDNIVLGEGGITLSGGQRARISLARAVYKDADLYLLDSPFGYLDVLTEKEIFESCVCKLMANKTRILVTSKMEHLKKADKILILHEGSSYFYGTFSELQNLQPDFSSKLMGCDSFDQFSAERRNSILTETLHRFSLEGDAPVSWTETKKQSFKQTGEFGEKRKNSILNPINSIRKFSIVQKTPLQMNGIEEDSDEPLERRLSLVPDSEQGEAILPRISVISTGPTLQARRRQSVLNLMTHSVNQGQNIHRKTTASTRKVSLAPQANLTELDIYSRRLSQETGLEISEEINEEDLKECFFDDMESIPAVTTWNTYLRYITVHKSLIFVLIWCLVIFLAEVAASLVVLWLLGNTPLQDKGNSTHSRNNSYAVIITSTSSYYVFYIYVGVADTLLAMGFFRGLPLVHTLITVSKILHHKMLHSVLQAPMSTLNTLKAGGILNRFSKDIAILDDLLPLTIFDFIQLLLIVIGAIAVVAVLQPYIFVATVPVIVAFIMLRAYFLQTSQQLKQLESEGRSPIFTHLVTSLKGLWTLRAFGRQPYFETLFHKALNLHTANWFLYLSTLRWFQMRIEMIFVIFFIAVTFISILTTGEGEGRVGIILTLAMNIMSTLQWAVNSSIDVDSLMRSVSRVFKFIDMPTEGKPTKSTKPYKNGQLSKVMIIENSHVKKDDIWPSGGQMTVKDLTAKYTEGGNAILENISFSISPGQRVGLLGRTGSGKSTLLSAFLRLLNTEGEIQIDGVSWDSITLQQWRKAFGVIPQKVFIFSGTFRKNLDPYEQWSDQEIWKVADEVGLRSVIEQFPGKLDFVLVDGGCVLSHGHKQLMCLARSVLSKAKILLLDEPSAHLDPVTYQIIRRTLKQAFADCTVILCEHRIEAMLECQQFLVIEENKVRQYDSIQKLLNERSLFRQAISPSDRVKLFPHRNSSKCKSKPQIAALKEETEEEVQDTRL
Compound,"reduction of CFTR channel function in response to forskolin (20 μg/ml peptide, intestinal epithelial cells (Caco-2, T84))","prevention of P31-43 induced decrease of CFTR function (VX-770 10 μM, VX-532 20 μM, Genistein 10 μM, Caco-2 or T84 cells)"
"α-gliadin peptide LGQQQPFPPQQPY (SEQ ID 1), induces an enterocyte stress response (P31-43 sequence of alpha-gliadin)",did reduce CFTR channel function,–
"CC(C)(C)c1cc(C(C)(C)C)c(NC(=O)c2c[nH]c3ccccc3c2=O)cc1O [VX-770, N-(2,4-di-tert-butyl-5-hydroxyphenyl)-4-oxo-1,4-dihydroquinoline-3-carboxamide]",–,Prevents P31-43 Induced Inhibition of CFTR Function
